Target: CCR5 (UniProt P51681)
Assay: cell-based or functional assay

Sequence of UniProt P51681 (P51681 whole entry): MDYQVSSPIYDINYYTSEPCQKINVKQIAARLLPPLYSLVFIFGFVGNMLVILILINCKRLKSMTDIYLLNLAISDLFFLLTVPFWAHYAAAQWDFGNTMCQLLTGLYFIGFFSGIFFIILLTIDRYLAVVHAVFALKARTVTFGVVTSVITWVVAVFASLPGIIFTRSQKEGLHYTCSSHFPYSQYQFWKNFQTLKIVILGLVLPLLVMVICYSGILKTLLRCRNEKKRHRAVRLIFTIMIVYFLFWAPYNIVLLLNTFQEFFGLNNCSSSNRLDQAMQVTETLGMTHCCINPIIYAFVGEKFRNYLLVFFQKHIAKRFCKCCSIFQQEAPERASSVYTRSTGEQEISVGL

Substance	EC50, inhibition of HeLa P4-CCR5/HeLa-Env-ADA cell fusion (β-galactosidase reporter) [nM]
AOP-RANTES (2-68) (from UniProt P13501 25-91) (ligand)	1.81
NNY-RANTES (2-68) (from UniProt P13501 25-91) (ligand)	0.323

— US7118737
